Publication PMC6210676

Target: calcium/calmodulin dependent protein kinase IIα (UniProt Q9UQM7)
Chain of UniProt Q9UQM7 (Q9UQM7 whole entry): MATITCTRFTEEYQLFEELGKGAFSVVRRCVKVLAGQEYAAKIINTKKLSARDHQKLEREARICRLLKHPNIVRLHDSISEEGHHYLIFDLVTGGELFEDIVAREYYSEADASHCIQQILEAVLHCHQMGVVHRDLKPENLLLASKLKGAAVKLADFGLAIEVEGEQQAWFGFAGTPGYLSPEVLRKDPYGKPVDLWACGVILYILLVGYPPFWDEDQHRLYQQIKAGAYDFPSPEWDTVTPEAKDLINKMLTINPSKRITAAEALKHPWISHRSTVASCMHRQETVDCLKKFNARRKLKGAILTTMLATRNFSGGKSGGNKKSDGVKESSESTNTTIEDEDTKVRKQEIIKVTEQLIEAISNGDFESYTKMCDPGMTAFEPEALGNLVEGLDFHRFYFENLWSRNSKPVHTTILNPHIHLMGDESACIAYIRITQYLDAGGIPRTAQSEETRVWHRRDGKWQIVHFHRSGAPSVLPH

Row | half maximal activation of CaMKIIα (phosphorylation of syntide-2, HPLC), calmodulin 10^-9 to 10^-6 M, 0.5 mM calcium chloride, 37° [nM] | Substance
1 | 64 | wild type calmodulin (recombinant, human) (from UniProt P0DP23 1-149) (natural protein)
2 | 129 | MetO77 calmodulin (from UniProt P0DP23 1-149) (natural protein)
